This is an account of results in US20170240637A1 (Memorial Sloan Kettering, published 2017).

For experiment [1], the target named is T1, 2Ig-B7H3-mFc mutant R127A (human, UniProt Q5ZPR3-2 29-248, limits assumed).
T1 construct: not shown: mouse Fc
T1 sequence (looked up): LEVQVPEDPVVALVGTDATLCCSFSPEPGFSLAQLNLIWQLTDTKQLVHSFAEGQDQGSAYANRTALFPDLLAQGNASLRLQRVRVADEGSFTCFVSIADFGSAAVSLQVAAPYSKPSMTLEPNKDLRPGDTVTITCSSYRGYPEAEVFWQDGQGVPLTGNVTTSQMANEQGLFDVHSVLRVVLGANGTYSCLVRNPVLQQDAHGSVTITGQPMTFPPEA
Briefly: SPR, 400 nM antibody over immobilized R127A mutant.

The target in experiment [2] is 2Ig-B7H3-mFc mutant D128A (human) (UniProt Q5ZPR3). Briefly: SPR, 400 nM antibody over immobilized D128A mutant.
Experiment [3] has as its target T2, wild type 2Ig-B7H3-mFc (human, UniProt Q5ZPR3-2 29-248, limits assumed).
T2 construct: Q5ZPR3 canonical entry is the 4Ig isoform; the 2Ig form is its shorter isoform; also called 2Ig-B7H3-Fc; WT 2Ig-B7H3-Fc; not shown: mouse Fc
T2 sequence (looked up): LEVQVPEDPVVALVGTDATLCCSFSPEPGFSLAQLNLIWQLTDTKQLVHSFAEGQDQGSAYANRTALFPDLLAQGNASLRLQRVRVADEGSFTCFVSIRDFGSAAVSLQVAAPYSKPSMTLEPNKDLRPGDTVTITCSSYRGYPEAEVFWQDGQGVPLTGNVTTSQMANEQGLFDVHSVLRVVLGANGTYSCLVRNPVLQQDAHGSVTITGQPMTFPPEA
The experiment can be described thus: SPR, 400 nM antibody over immobilized WT 2Ig-B7H3-mFc.

The target of experiment [4] is T3, 2Ig-B7H3 without Fc fusion (human, UniProt Q5ZPR3-2 29-245, limits assumed).
T3 construct: also called 2IgB7H3 (R&D)
T3 sequence (looked up): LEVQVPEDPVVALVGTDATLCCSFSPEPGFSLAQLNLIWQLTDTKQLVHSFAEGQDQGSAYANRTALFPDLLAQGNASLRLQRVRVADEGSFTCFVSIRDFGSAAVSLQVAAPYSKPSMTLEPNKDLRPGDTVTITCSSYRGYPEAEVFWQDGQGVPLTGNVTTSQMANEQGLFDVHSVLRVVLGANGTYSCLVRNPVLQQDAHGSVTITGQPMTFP
The experiment can be described thus: ELISA, right panel '2IgB7H3', scFv serially diluted 0.01-10 µg/ml. The protocol: (§1) B7H3-mFc (100 ng/well) or 2IgB7H3 (R&D, Minneapolis, Minn.) (25 ng/well) were coated on polyvinyl microtiter plates in PBS overnight. Plates were then blocked with 0.5% BSA in PBS at 150 μl per well for 1 h at room temperature. Antibodies were added in triplicates with serial dilution in 0.5% BSA. Following incubation for 1 h at room temperature and washing with PBS, HRP-mouse anti-human Fc antibody, HRP-streptavidin, or HRP-mouse anti-Flag antibody was added. After incubation for 1 h at room temperature and further washing, the color was developed and quantified using an ELISA plate reader at 490 nm.

For experiment [5], the target named is T4, 4Ig-B7H3 (human, UniProt Q5ZPR3 27-461, limits assumed).
T4 construct: also called 4Ig-B73H3
T4 sequence (looked up): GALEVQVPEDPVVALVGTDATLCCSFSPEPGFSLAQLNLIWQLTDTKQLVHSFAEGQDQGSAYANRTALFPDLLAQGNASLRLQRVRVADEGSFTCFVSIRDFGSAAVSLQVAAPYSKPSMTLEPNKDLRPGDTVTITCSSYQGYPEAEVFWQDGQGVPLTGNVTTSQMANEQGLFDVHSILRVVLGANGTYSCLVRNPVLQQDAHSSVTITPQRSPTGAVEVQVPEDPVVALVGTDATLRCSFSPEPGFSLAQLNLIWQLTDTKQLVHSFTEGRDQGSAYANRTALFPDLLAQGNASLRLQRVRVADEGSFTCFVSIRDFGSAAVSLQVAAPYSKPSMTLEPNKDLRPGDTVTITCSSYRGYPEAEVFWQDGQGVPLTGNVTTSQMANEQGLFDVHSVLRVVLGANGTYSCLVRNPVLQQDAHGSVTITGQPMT
Briefly: SPR (Biacore T-100), 4Ig-B7H3 on CM5 chip, scFv injected. The procedure:
(§2) In brief, B7H3 antigen (either 2Ig-B7H3, 4Ig-B7H3, 2Ig-B7H3-mFc, 4Ig-B7H3-mFc), was directly immobilized onto the CM5 sensor chip via […]. Reference surface was set up for nonspecific binding and refractive index changes. For analysis of the kinetics of interactions, varying concentrations of scFvs were injected at flow rate of 30 μl/min using running buffer containing 10 mM HEPES, 150 mM NaCl, 3 mM EDTA, and 0.05% Surfactant P-20 (pH 7.4). The association and dissociation phase data were fitted simultaneously to a 1:1 model by using BIAevaluation 3.2. All the experiments were done at 25° C.

Experiment [6] addresses B7H3 on B7H3-positive human tumor cells (M14, LAN-1, IMR-32, HeLa) (human) (UniProt Q5ZPR3). The experiment can be described thus: cell-based or functional assay.
The target of experiment [7] is T4, 4Ig-B7H3. The experiment can be described thus: SPR, IgG on 4Ig-B7-H3 without Fc fusion. The procedure:
(§3) In brief, B7H3 antigen (either 2Ig-B7H3, 4Ig-B7H3, 2Ig-B7H3-mFc, 4Ig-B7H3-mFc), was directly immobilized onto the CM5 sensor chip via […]. Reference surface was set up for nonspecific binding and refractive index changes. […] The association and dissociation phase data were fitted simultaneously to a 1:1 model by using BIAevaluation 3.2. All the experiments were done at 25° C.

The target in experiment [8] is T2, wild type 2Ig-B7H3-mFc. Briefly: SPR, IgG on 2Ig-B7H3-mFc. The protocol:
as §3

The target in experiment [9] is B7H3 on B7H3-positive human tumor cells (M14, LAN-1, IMR-32, HeLa) (human) (UniProt Q5ZPR3). The experiment can be described thus: cell-binding assay of 131I-labelled antibody on LAN-1 cells.
In experiment [10] the target is T4, 4Ig-B7H3. The experiment can be described thus: SPR.
The target of experiment [11] is T3, 2Ig-B7H3 without Fc fusion. Briefly: SPR.
Experiment [12] has as its target T1, 2Ig-B7H3-mFc mutant R127A. Briefly: SPR, IgG over immobilised 2Ig-B7H3-mFc R127A (left panel); antibody concentration not shown.
Experiment [13] deals with T5, 4Ig-B7H3 fused to mouse Fc (B7H3-mFc) (human, UniProt Q5ZPR3 29-466, limits assumed, biotinylated on primary amines (NHS-biotin) in the experiment of paragraph 316).
T5 construct: Expressed in DG44 CHO cells; also called 4Ig-B7H3-Fc; 4Ig-B7H3-mFc; not shown: mouse Fc
T5 sequence (looked up): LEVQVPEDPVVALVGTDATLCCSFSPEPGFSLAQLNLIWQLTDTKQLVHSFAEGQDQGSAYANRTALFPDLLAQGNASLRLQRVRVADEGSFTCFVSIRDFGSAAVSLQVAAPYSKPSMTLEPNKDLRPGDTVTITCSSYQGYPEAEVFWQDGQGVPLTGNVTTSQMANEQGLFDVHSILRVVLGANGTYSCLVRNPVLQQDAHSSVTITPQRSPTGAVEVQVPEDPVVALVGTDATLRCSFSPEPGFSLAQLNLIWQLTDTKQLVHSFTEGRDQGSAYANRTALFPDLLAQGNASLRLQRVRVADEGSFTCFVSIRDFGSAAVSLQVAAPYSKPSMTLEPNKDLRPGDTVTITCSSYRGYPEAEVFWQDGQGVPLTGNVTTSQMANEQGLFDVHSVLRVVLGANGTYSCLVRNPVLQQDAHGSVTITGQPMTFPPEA
Briefly: SPR, IgG on 4Ig-B7H3-Fc. The protocol: as §3

Experiment [14] addresses T3, 2Ig-B7H3 without Fc fusion. Briefly: SPR, IgG on 2Ig-B7-H3 without Fc fusion. The protocol:
as §3

Experiment [15] addresses T4, 4Ig-B7H3. The experiment can be described thus: ELISA titled 'B7H3 ELISA'; legend: 4Ig-B7H3 (the ELISA method coats B7H3-mFc); IgG serially diluted. The protocol: as §1
For experiment [16], the target named is T2, wild type 2Ig-B7H3-mFc. The experiment can be described thus: SPR, antigen on CM5 chip. The procedure: as §2
In experiment [17] the target is T1, 2Ig-B7H3-mFc mutant R127A. Briefly: SPR, mutant 2Ig-B7H3-mFc on chip. The procedure:
as §2

Experiment [18] has as its target T1, 2Ig-B7H3-mFc mutant R127A. The experiment can be described thus: SPR, IgG over immobilised 2Ig-B7H3-mFc R127A (right panel); antibody concentration not shown.

Turning to “anti-B7H3 MAb MIH42 (Thermo Scientific Pierce) (antibody)”, the results for the Relative binding (to WT) in experiment [1] and in [2] were 76.1% and 68.8%, respectively. The molecule also came in with a Max RU with wild type 2Ig-B7H3-mFc [3] of 2530 RU.

B1: hu8H9 clone S3.3 scFv (scFv)
scFv: QVQLVQSGAEVVKPGASVKLSCKTSGYTFTNYDINWVRQRPGQGLEWIGWIFPGDGSTQYNEKFKGKATLTTDTSTSTAYMELSSLRSEDTAVYFCARQTTATWFAYWGQGTLVTVSSGGGGSGGGGSGGGGSEIVMTQSPATLSVSPGERVTLSCRASQSISDYLYWYQQKSHESPRLLIKYASQSISGIPARFSGSGSGSEFTLTINSVEPEDVGVYYCQNGHSFPLTFGQGTKLELKR
notes: also called Sort3; not shown: FLAG and His tags
On to B1, for which the “EC50 (read off the curve)” value in [4] is ~0.2 µg/mL. In the experiment with 4Ig-B7H3 [5], this molecule had a Kd of 9.85 nM, a koff of 0.000244 s⁻¹ and a kon of 24800 M⁻¹ s⁻¹.

B2: hu8H9 3.1 IgG1 (antibody, V domains shown)
VH: QVQLVQSGAEVVKPGASVKLSCKTSGYTFTNYDINWVRQRPGQGLEWIGWIFPGDDSTQYNEKFKGKATLTTDTSTSTAYMELSSLRSEDTAVYFCARQTTGTWFAYWGQGTLVTVSS
VL: EIVMTQSPATLSVSPGERVTLSCRASQSISDYLYWYQQKSHESPRLLIKYASQSISGIPARFSGSGSGSEFTLTINSVEPEDVGVYYCQNGHSFPLTFGQGTKLELKR
notes: also called clone 3.1
In [6], B2 yielded an ADCC EC50 (µg/ml), 51Cr release, LAN-1 targets, human PBMC effectors of 0.31 µg/mL. This molecule displayed a Fold change EC50 relative to ch8H9 (ADCC) in [6] of 5 fold. In addition, the Kd was determined as 13 nM with 4Ig-B7H3 [7], 6 nM in the experiment with wild type 2Ig-B7H3-mFc [8], 2 nM in experiment [13] and 5 nM in [14]. Moreover, the koff in the experiment with 4Ig-B7H3 [7] came out at 0.000298 s⁻¹; with wild type 2Ig-B7H3-mFc [8], 0.000232 s⁻¹; in experiment [13], 0.000114 s⁻¹; in experiment [14], 0.000171 s⁻¹. Further, the kon is 23400 M⁻¹ s⁻¹ with 4Ig-B7H3 [7], 38700 M⁻¹ s⁻¹ with wild type 2Ig-B7H3-mFc [8], 55600 M⁻¹ s⁻¹ in experiment [13] and 33900 M⁻¹ s⁻¹ in [14]. In experiment [9], this molecule gave an in vitro immunoreactivity of 54%. For the same molecule, the “fold enhancement in affinity against parental hu8H9 H3L3” value (in the experiment with 4Ig-B7H3 [10]; in [11]) was 2.5 to 9 fold each time. Moreover, the binding result in [12] was “no binding”.

B3: mouse/human chimeric 8H9 (ch8H9) IgG1 (antibody, V domains shown)
VH: QVQLQQSGAELVKPGASVKLSCKASGYTFTNYDINWVRQRPEQGLEWIGWIFPGDGSTQYNEKFKGKATLTTDTSSSTAYMQLSRLTSEDSAVYFCARQTTATWFAYWGQGTLVTVSA
VL: DIVMTQSPATLSVTPGDRVSLSCRASQSISDYLHWYQQKSHESPRLLIKYASQSISGIPSRFSGSGSGSDFTLSINSVEPEDVGVYYCQNGHSFPLTFGAGTKLELKR
On to B3, for which, in the experiment with 4Ig-B7H3 [15], the “EC50 (read off the curve)” value was ~0.005 µg/mL. The Kd with 4Ig-B7H3 [7] is 7.7 nM; with wild type 2Ig-B7H3-mFc [8], 0.76 nM; in the experiment with wild type 2Ig-B7H3-mFc [16] it was 0.74 nM; in experiment [13] it was 1.2 nM; in experiment [14], 2.7 nM. Also, the koff in the experiment with 4Ig-B7H3 [7] is 0.000218 s⁻¹; with wild type 2Ig-B7H3-mFc [8], 3.79e-05 s⁻¹; with wild type 2Ig-B7H3-mFc [16], 3.51e-05 s⁻¹; in experiment [13] it was 5.49e-05 s⁻¹; in [14], 8.73e-05 s⁻¹. Also, the kon in the experiment with 4Ig-B7H3 [7] amounted to 28300 M⁻¹ s⁻¹; in the experiment with wild type 2Ig-B7H3-mFc [8], 49600 M⁻¹ s⁻¹; with wild type 2Ig-B7H3-mFc [16] it was 47400 M⁻¹ s⁻¹; in experiment [13], 44800 M⁻¹ s⁻¹; in experiment [14] it was 32100 M⁻¹ s⁻¹. For the same molecule, in experiment [17], the binding result is recorded as “no binding (tested: 400 nM)”.

B4: hu8H9 5.1 IgG1 (antibody, V domains shown)
VH: QVQLVQSGAEVVKPGASVKVSCKTSGYTFTNYDINWVRQRPGQGLEWIGWIFPGDDSTQYNEKFKGRVTMTTDTSTSTVYMELSSLRSEDTAVYFCARQTTGTWFAYWGQGTLVTVSS
VL: EIVMTQSPATLSVSPGERVTLSCRASQSISDYLYWYQQKSHQAPRLLIKYASQSISGIPARFSGSGSGSEFTLTISSLQPEDFGVYYCQNGHSFPLTFGQGTKLELKR
notes: also called clone 5.1
In [6], B4 came in with an ADCC EC50 (µg/ml), 51Cr release, LAN-1 targets, human PBMC effectors of 0.16 µg/mL and a Fold change EC50 relative to ch8H9 (ADCC) of 9 fold. In the experiment with wild type 2Ig-B7H3-mFc [8], the Kd came out at 0.82 nM, the koff was found to be 5.59e-05 s⁻¹ and the kon came to 67800 M⁻¹ s⁻¹. In experiment [18], the binding result is reported as “no binding”. In experiment [13], this molecule came in with a Kd of 1.3 nM, a koff of 7.08e-05 s⁻¹ and a kon of 59200 M⁻¹ s⁻¹.
